T1: FcγRIIa H (human, UniProt P12318 34-217)
T1 construct: extracellular domain; also called FcgRIIa H; 2aH; not shown: His tag at the C terminus
T1 sequence (looked up): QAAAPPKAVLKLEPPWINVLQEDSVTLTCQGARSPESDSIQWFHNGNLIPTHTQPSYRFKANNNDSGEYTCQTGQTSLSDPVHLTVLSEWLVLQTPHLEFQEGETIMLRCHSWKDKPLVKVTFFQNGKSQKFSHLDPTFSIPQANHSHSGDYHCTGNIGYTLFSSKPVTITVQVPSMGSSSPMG

T2: FcγRIIb (human, UniProt P31994 43-217)
T2 construct: extracellular domain; also called FcgRIIb; 2b; not shown: His tag at the C terminus
T2 sequence (looked up): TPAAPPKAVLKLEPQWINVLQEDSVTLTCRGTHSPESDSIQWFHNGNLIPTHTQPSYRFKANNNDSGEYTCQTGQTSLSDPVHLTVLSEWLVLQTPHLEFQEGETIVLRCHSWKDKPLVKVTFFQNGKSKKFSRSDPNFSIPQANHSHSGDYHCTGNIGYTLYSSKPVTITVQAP


How the values were obtained:
FcγRIIa H [1] = target: T1, FcγRIIa H; assay: SPR (Biacore); He/Con_2aH divided by He/Con_2b (FcγRIIa H versus FcγRIIb)
Experimental: (§1) The heterodimerized antibodies He Abs in which one of the H chains was introduced with an alteration were assayed for their binding activities to each activating FcγR and inhibitory FcγR according to the method described in Example 4. […] The activating FcγRs in FIGS. 26, 27, 28, and 29 are FcγRIa, FcγRIIa (R), FcγRIIa (H), and FcγRIIIa, respectively.
(§2) Analysis of interaction between objective antibody and the FcγR was carried out using Biacore T100 (GE Healthcare). HBS-EP+ (GE Healthcare) was used as the running buffer, and the measurement temperature was set to 25° C. Chips produced by immobilizing the antigen peptide by the amine coupling method to a Series S Sencor Chip CM5 (GE Healthcare), or alternatively, chips produced by allowing preliminarily biotinylated antigen peptides to interact with and immobilize onto a Series S Sensor Chip SA (certified) (GE Healthcare) were used. Antibodies of interest were captured onto an antigen peptide-immobilized chip, and allowed to interact to each FcγR diluted with running buffer. To regenerate and repeatedly use the chip, the antibodies captured on the chip were washed off by reacting 10 mM glycine-HCl, pH 1.5.

FcγRIIa H [2] = target: T1, FcγRIIa H; assay: SPR (Biacore), FcγR passed over captured antibody; binding amount as % of control GpH7-A5/GpH7-B3/GpL16-k0 (=100)
Experimental: as §1, §2

FcγRIIb = target: T2, FcγRIIb; assay: as above
Experimental: as §1, §2

Binder	He_2aH/2b (IIaH/IIb) (FcγRIIa H [1]) [ratio]	He/Con_2aH (FcγRIIa H [2])	He/Con_2b (FcγRIIb)
GpH7-A5/GpH7-B3 variant P329_02A/GpL16-k0 (antibody, human IgG1, kappa, He Ab: mutation in the GpH7-B3 H chain only) heavy 1: not shown heavy 2: not shown light: DIVMTQSPLSLPVTPGEPASISCQASESLVHSNRNTYLHWYLQKPGQSPQLLIYKVSNRFSGVPDRFSGSGSGTDFTLKISRVEAEDVGVYYCSQNTHVPPTFGQGTKVEIERTVAAPSVFIFPPSDEQLKSGTASVVCLLNNFYPREAKVQWKVDNALQSGNSQESVTEQDSKDSTYSLSSTLTLSKADYEKHKVYACEVTHQGLSSPVTKSFNRGEC	1.62	65.7 relative, control = 100	40.5 relative, control = 100
GpH7-A5/GpH7-B3 variant P329_03V/GpL16-k0 (antibody, human IgG1, kappa, He Ab: mutation in the GpH7-B3 H chain only) heavy 1: not shown heavy 2: not shown light: DIVMTQSPLSLPVTPGEPASISCQASESLVHSNRNTYLHWYLQKPGQSPQLLIYKVSNRFSGVPDRFSGSGSGTDFTLKISRVEAEDVGVYYCSQNTHVPPTFGQGTKVEIERTVAAPSVFIFPPSDEQLKSGTASVVCLLNNFYPREAKVQWKVDNALQSGNSQESVTEQDSKDSTYSLSSTLTLSKADYEKHKVYACEVTHQGLSSPVTKSFNRGEC	1.57	60.4 relative, control = 100	38.5 relative, control = 100
GpH7-A5/GpH7-B3 variant P329_04F/GpL16-k0 (antibody, human IgG1, kappa, He Ab: mutation in the GpH7-B3 H chain only) heavy 1: not shown heavy 2: not shown light: DIVMTQSPLSLPVTPGEPASISCQASESLVHSNRNTYLHWYLQKPGQSPQLLIYKVSNRFSGVPDRFSGSGSGTDFTLKISRVEAEDVGVYYCSQNTHVPPTFGQGTKVEIERTVAAPSVFIFPPSDEQLKSGTASVVCLLNNFYPREAKVQWKVDNALQSGNSQESVTEQDSKDSTYSLSSTLTLSKADYEKHKVYACEVTHQGLSSPVTKSFNRGEC	1.38	44.5 relative, control = 100	32.2 relative, control = 100
GpH7-A5/GpH7-B3 variant P329_06M/GpL16-k0 (antibody, human IgG1, kappa, He Ab: mutation in the GpH7-B3 H chain only) heavy 1: not shown heavy 2: not shown light: DIVMTQSPLSLPVTPGEPASISCQASESLVHSNRNTYLHWYLQKPGQSPQLLIYKVSNRFSGVPDRFSGSGSGTDFTLKISRVEAEDVGVYYCSQNTHVPPTFGQGTKVEIERTVAAPSVFIFPPSDEQLKSGTASVVCLLNNFYPREAKVQWKVDNALQSGNSQESVTEQDSKDSTYSLSSTLTLSKADYEKHKVYACEVTHQGLSSPVTKSFNRGEC	1.5	43.7 relative, control = 100	29.1 relative, control = 100
GpH7-A5/GpH7-B3 variant P329_07I/GpL16-k0 (antibody, human IgG1, kappa, He Ab: mutation in the GpH7-B3 H chain only) heavy 1: not shown heavy 2: not shown light: DIVMTQSPLSLPVTPGEPASISCQASESLVHSNRNTYLHWYLQKPGQSPQLLIYKVSNRFSGVPDRFSGSGSGTDFTLKISRVEAEDVGVYYCSQNTHVPPTFGQGTKVEIERTVAAPSVFIFPPSDEQLKSGTASVVCLLNNFYPREAKVQWKVDNALQSGNSQESVTEQDSKDSTYSLSSTLTLSKADYEKHKVYACEVTHQGLSSPVTKSFNRGEC	1.56	53.8 relative, control = 100	34.6 relative, control = 100
GpH7-A5/GpH7-B3 variant P329_08L/GpL16-k0 (antibody, human IgG1, kappa, He Ab: mutation in the GpH7-B3 H chain only) heavy 1: not shown heavy 2: not shown light: DIVMTQSPLSLPVTPGEPASISCQASESLVHSNRNTYLHWYLQKPGQSPQLLIYKVSNRFSGVPDRFSGSGSGTDFTLKISRVEAEDVGVYYCSQNTHVPPTFGQGTKVEIERTVAAPSVFIFPPSDEQLKSGTASVVCLLNNFYPREAKVQWKVDNALQSGNSQESVTEQDSKDSTYSLSSTLTLSKADYEKHKVYACEVTHQGLSSPVTKSFNRGEC	1.56	45.4 relative, control = 100	29.1 relative, control = 100
GpH7-A5/GpH7-B3 variant P329_11K/GpL16-k0 (antibody, human IgG1, kappa, He Ab: P329K (EU numbering) in the GpH7-B3 H chain only; also called GpH7-A5/GpH7-B13/GpL16-k0) heavy 1: not shown heavy 2: not shown light: DIVMTQSPLSLPVTPGEPASISCQASESLVHSNRNTYLHWYLQKPGQSPQLLIYKVSNRFSGVPDRFSGSGSGTDFTLKISRVEAEDVGVYYCSQNTHVPPTFGQGTKVEIERTVAAPSVFIFPPSDEQLKSGTASVVCLLNNFYPREAKVQWKVDNALQSGNSQESVTEQDSKDSTYSLSSTLTLSKADYEKHKVYACEVTHQGLSSPVTKSFNRGEC	2.74	46.2 relative, control = 100	16.9 relative, control = 100
GpH7-A5/GpH7-B3 variant P329_12R/GpL16-k0 (antibody, human IgG1, kappa, He Ab: P329R (EU numbering) in the GpH7-B3 H chain only; also called GpH7-A5/GpH7-B12/GpL16-k0) heavy 1: not shown heavy 2: not shown light: DIVMTQSPLSLPVTPGEPASISCQASESLVHSNRNTYLHWYLQKPGQSPQLLIYKVSNRFSGVPDRFSGSGSGTDFTLKISRVEAEDVGVYYCSQNTHVPPTFGQGTKVEIERTVAAPSVFIFPPSDEQLKSGTASVVCLLNNFYPREAKVQWKVDNALQSGNSQESVTEQDSKDSTYSLSSTLTLSKADYEKHKVYACEVTHQGLSSPVTKSFNRGEC	2.63	46.4 relative, control = 100	17.6 relative, control = 100
GpH7-A5/GpH7-B3 variant P329_13S/GpL16-k0 (antibody, human IgG1, kappa, He Ab: mutation in the GpH7-B3 H chain only) heavy 1: not shown heavy 2: not shown light: DIVMTQSPLSLPVTPGEPASISCQASESLVHSNRNTYLHWYLQKPGQSPQLLIYKVSNRFSGVPDRFSGSGSGTDFTLKISRVEAEDVGVYYCSQNTHVPPTFGQGTKVEIERTVAAPSVFIFPPSDEQLKSGTASVVCLLNNFYPREAKVQWKVDNALQSGNSQESVTEQDSKDSTYSLSSTLTLSKADYEKHKVYACEVTHQGLSSPVTKSFNRGEC	1.64	67.3 relative, control = 100	41 relative, control = 100

Second part, the binder after the results:

He_2aH/2b (IIaH/IIb) (FcγRIIa H [1]) [ratio]	He/Con_2aH (FcγRIIa H [2])	He/Con_2b (FcγRIIb)	Binder
1.65	62.4 relative, control = 100	37.9 relative, control = 100	GpH7-A5/GpH7-B3 variant P329_14T/GpL16-k0 (antibody, human IgG1, kappa, He Ab: mutation in the GpH7-B3 H chain only) heavy 1: not shown heavy 2: not shown light: DIVMTQSPLSLPVTPGEPASISCQASESLVHSNRNTYLHWYLQKPGQSPQLLIYKVSNRFSGVPDRFSGSGSGTDFTLKISRVEAEDVGVYYCSQNTHVPPTFGQGTKVEIERTVAAPSVFIFPPSDEQLKSGTASVVCLLNNFYPREAKVQWKVDNALQSGNSQESVTEQDSKDSTYSLSSTLTLSKADYEKHKVYACEVTHQGLSSPVTKSFNRGEC
1.5	68.7 relative, control = 100	45.7 relative, control = 100	GpH7-A5/GpH7-B3 variant P329_15Y/GpL16-k0 (antibody, human IgG1, kappa, He Ab: mutation in the GpH7-B3 H chain only) heavy 1: not shown heavy 2: not shown light: DIVMTQSPLSLPVTPGEPASISCQASESLVHSNRNTYLHWYLQKPGQSPQLLIYKVSNRFSGVPDRFSGSGSGTDFTLKISRVEAEDVGVYYCSQNTHVPPTFGQGTKVEIERTVAAPSVFIFPPSDEQLKSGTASVVCLLNNFYPREAKVQWKVDNALQSGNSQESVTEQDSKDSTYSLSSTLTLSKADYEKHKVYACEVTHQGLSSPVTKSFNRGEC
1.69	66.1 relative, control = 100	39.1 relative, control = 100	GpH7-A5/GpH7-B3 variant P329_16H/GpL16-k0 (antibody, human IgG1, kappa, He Ab: mutation in the GpH7-B3 H chain only) heavy 1: not shown heavy 2: not shown light: DIVMTQSPLSLPVTPGEPASISCQASESLVHSNRNTYLHWYLQKPGQSPQLLIYKVSNRFSGVPDRFSGSGSGTDFTLKISRVEAEDVGVYYCSQNTHVPPTFGQGTKVEIERTVAAPSVFIFPPSDEQLKSGTASVVCLLNNFYPREAKVQWKVDNALQSGNSQESVTEQDSKDSTYSLSSTLTLSKADYEKHKVYACEVTHQGLSSPVTKSFNRGEC
1.64	66.2 relative, control = 100	40.4 relative, control = 100	GpH7-A5/GpH7-B3 variant P329_18N/GpL16-k0 (antibody, human IgG1, kappa, He Ab: mutation in the GpH7-B3 H chain only) heavy 1: not shown heavy 2: not shown light: DIVMTQSPLSLPVTPGEPASISCQASESLVHSNRNTYLHWYLQKPGQSPQLLIYKVSNRFSGVPDRFSGSGSGTDFTLKISRVEAEDVGVYYCSQNTHVPPTFGQGTKVEIERTVAAPSVFIFPPSDEQLKSGTASVVCLLNNFYPREAKVQWKVDNALQSGNSQESVTEQDSKDSTYSLSSTLTLSKADYEKHKVYACEVTHQGLSSPVTKSFNRGEC
1.26	38.7 relative, control = 100	30.7 relative, control = 100	GpH7-A5/GpH7-B3 variant P329_19Q/GpL16-k0 (antibody, human IgG1, kappa, He Ab: mutation in the GpH7-B3 H chain only) heavy 1: not shown heavy 2: not shown light: DIVMTQSPLSLPVTPGEPASISCQASESLVHSNRNTYLHWYLQKPGQSPQLLIYKVSNRFSGVPDRFSGSGSGTDFTLKISRVEAEDVGVYYCSQNTHVPPTFGQGTKVEIERTVAAPSVFIFPPSDEQLKSGTASVVCLLNNFYPREAKVQWKVDNALQSGNSQESVTEQDSKDSTYSLSSTLTLSKADYEKHKVYACEVTHQGLSSPVTKSFNRGEC
1.22	98.8 relative, control = 100	81.1 relative, control = 100	GpH7-A5/GpH7-B3 variant S324_01G/GpL16-k0 (antibody, human IgG1, kappa, He Ab: mutation in the GpH7-B3 H chain only) heavy 1: not shown heavy 2: not shown light: DIVMTQSPLSLPVTPGEPASISCQASESLVHSNRNTYLHWYLQKPGQSPQLLIYKVSNRFSGVPDRFSGSGSGTDFTLKISRVEAEDVGVYYCSQNTHVPPTFGQGTKVEIERTVAAPSVFIFPPSDEQLKSGTASVVCLLNNFYPREAKVQWKVDNALQSGNSQESVTEQDSKDSTYSLSSTLTLSKADYEKHKVYACEVTHQGLSSPVTKSFNRGEC
1.31	102 relative, control = 100	78.3 relative, control = 100	GpH7-A5/GpH7-B3 variant S324_02A/GpL16-k0 (antibody, human IgG1, kappa, He Ab: mutation in the GpH7-B3 H chain only) heavy 1: not shown heavy 2: not shown light: DIVMTQSPLSLPVTPGEPASISCQASESLVHSNRNTYLHWYLQKPGQSPQLLIYKVSNRFSGVPDRFSGSGSGTDFTLKISRVEAEDVGVYYCSQNTHVPPTFGQGTKVEIERTVAAPSVFIFPPSDEQLKSGTASVVCLLNNFYPREAKVQWKVDNALQSGNSQESVTEQDSKDSTYSLSSTLTLSKADYEKHKVYACEVTHQGLSSPVTKSFNRGEC

Source: patent US20150344570A1 (published 2015)
